In PMC2861610 (Molecular Biology of the Cell, 2010):
Values belong to the molecule of their own block, whether it stands above or below them.

Columns and labels:
[1] = target: Abp1 (endogenous) (Dictyostelium (endogenous in Dictyostelium cells)); experiment: native gel or EMSA
[2] = target: T1, GST fusion with the GPR loop of MyoK (Dictyostelium, UniProt Q9XXV8 114-272); experiment: SPR
T1 sequence (looked up): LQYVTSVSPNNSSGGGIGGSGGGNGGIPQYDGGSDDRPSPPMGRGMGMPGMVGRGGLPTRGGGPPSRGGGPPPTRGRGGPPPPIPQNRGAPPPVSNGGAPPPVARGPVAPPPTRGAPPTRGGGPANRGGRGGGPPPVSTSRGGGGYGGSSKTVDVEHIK

GST-Abp1 (Dictyostelium) = experiment: SPR
His-tagged dynamin A = target: T2, His-tagged dynamin A (Dictyostelium, UniProt Q94464 1-853); experiment: far-Western, overlay or dot blot
T2 sequence (looked up): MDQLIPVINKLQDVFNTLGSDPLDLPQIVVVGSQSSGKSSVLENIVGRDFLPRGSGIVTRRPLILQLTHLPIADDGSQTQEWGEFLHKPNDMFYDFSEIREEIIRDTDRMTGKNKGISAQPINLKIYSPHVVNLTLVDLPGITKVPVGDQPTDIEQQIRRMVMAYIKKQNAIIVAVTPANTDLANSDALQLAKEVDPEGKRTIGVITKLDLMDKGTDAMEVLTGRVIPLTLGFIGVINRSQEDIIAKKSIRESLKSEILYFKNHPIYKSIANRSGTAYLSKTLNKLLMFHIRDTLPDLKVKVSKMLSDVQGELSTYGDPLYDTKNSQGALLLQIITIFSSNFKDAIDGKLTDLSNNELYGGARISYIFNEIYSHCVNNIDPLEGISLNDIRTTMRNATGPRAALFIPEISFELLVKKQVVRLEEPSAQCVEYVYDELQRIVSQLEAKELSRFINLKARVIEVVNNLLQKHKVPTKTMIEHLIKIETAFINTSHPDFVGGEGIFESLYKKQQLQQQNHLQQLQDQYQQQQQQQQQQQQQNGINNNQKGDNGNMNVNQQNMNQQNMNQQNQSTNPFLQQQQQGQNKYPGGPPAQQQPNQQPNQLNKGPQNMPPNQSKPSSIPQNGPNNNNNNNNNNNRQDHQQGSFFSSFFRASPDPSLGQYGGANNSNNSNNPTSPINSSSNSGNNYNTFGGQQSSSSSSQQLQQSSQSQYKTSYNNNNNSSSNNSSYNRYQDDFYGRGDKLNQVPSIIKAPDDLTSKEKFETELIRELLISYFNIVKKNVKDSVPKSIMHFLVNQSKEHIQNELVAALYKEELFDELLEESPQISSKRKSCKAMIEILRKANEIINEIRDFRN

stoichiometry N [1]: 2
Molecule: Abp1 (endogenous) (natural protein)

Kd [2]: 108 nM
Kd (GST-Abp1 (Dictyostelium)): 11 nM
binding result (His-tagged dynamin A): binds
B1: Profilin II (natural protein, Dictyostelium, UniProt P26200 1-124, looked up)
chain: MTWQAYVDNNLLGAGFASAALLGAADGSVWAHSAGFNVAEGKAITALFQKDGAAFATGIHVAGKKYMAIKSDTRSAYGKLGAGGVVCVKTLTCIIVAVYDDKLQPGAAANIAEKLADYLIDNNC

Kd [2]: ~500 nM
binding result (His-tagged dynamin A): binds
B2: Profilin I (natural protein, Dictyostelium, UniProt P26199 1-126, looked up)
chain: MSWQQYVDEQLTGAGLSQGAILGANDGGVWAKSSGINITKPEGDGIAALFKNPAEVFAKGALIGGVKYMGIKGDPQSIYGKKGATGCVLVRTGQAIIVGIYDDKVQPGSAALIVEKLGDYLRDNGY

Kd (GST-Abp1 (Dictyostelium)): 27 nM
B3: GST fusion with the GPR loop of MyoK (domain or fragment)
chain: T1 sequence (looked up)

Kd (GST-Abp1 (Dictyostelium)): 2.6 nM
B4: His-tagged dynamin A (natural protein)
chain: T2 sequence (looked up)
